The subject of the experiment is phospho-S6 Ribosomal Protein (S235/236) in hippocampus. Kind of experiment: Hippocampal phospho-S6RP western blot and tissue staining 3 days post-TBI. The format is in vivo, mouse. From the text: The mouse controlled cortical impact (CCI) injury model was used as previously described. In brief, mice were anesthetized with 5% isoflurane and 1:1 O2:N2 mixture. Animals were mounted on a stereotaxic frame and were secured by ear bars and an incisor bar. Anesthesia was maintained with 2.0% isoflurane and 1:1 O2:N2 mixture. A 5-mm-diameter craniotomy was made midway between bregma and lambda on the right side, with the medial edge of the craniotomy 1 mm lateral to midline. Injury was produced using a magnetic impactor mounted at an angle of 110° from the vertical plane. A single impact at a velocity of 4+/−0.2 m/s was used inflict a moderate to severe injury (1.2-1.3 mm impact depth). After injury, the incision was closed. Sham animals underwent identical surgeries except for impact injury. Core body temperature was monitored using a rectal thermometer and maintained at 36.8° C.-37.2° C. with a heating pad throughout the procedure. For treatments, TIMP3 (60.0 μg/kg) or vehicle control (PBS) administration was performed at 2, 24, and 48 hrs after injury via tail vein injections in a total volume of 125 μl. Animal research was performed with approval of the Institutional Animal Care and Use Committee at ISIS Services LLC (San Carlos, Calif., USA). Mice received humane care according to the criteria outlined by the National Research Council's Institute of Laboratory Animal Resources in the “Guide for the Care and Use of Laboratory Animals”. Neurocognitive testing conducted at UT Houston was in compliance with University of Texas Houston Institutional Animal Care and Use Committee.
Following treatments mice were subjected to a intra-cardiac perfusion-fixation procedure under isoflurane anesthesia. In brief, following a small incision into the right ventricle, a blunt needle was placed 5 mm into the heart and clamped in place. The left atrium was cut and 30 mls of ice cold PBS was perfused through the mouse using a syringe pump at a constant rate of 4 ml/min. After PBS the procedure was repeated with 30 ml of 4% ice-cold paraformaldehyde (PFA) in PBS. Upon completion of the perfusion procedure, brains were dissected out and placed in 20 mls of 4% PFA for a further 24 hrs before transferring to a 30% sucrose solution for an additional 48 hrs. Following sucrose infiltration, brains were frozen in Tissue-Tek O.C.T.™ compound (Cat#4583, Sakura Fineteck USA, Inc. Torrance, Calif.) using an isopentane/dry ice bath. To prepare coronal sections for tissue staining 20 μm thick sections were obtained using a Leica CM1850™ cryostat (Leica Microsystems, Buffalo Grove, Ill.). Sections were immediately placed in a Storage Solution (30% Glycerol, 30% Ethylene Glycol, 40% 0.1M Phosphate Buffer pH 7.2) and stored at −20° C. until required.
The same protocol was adopted for both tissue sections and isolated neuronal cultures. Briefly, sections were permeabilized with antibody staining solution:—2% w/v BSA (Cat# A3059. Sigma, St Louis, Mo.), 0.1% Triton X-100™ (Cat# X100. Sigma, St Louis, Mo.), 2% v/v goats serum (Cat# S-1000, Vector Labs, Burlingame, Calif.) in PBS. Sections were incubated overnight with primary antibodies on a rotating shaker at 4° C. Sections were then washed three times for 3 min with PBS, and then incubated with secondary antibodies for 1 hr. After staining, sections were washed in PBS, briefly air dried, and coverslipped using Prolong™ gold anti-fade reagent with DAPI (Cat# P36931, Life Technologies, Grand Island, N.Y.). Isolated neuronal cultures underwent the same staining protocol with the exception of the last step in which Prolong gold anti-fade reagent with DAPI was added to the wells of the culture plate sufficient to cover the material. Images were obtained using a Leica DMI6000-B™ inverted microscope, Leica DFC36-FX™ digital camera and Leica Application Suite™ (L.A.S.) software, version 3.1. […]
In general terms: Immunoblotting shows a protein as a band on a membrane.

The record followed here is patent US20150359847A1, “METHOD AND COMPOSITION FOR CONFERRING NEUROPROTECTION” (BLOOD SYSTEMS RESEARCH INSTITUTE, priority 2014, published 2015).

B1: TIMP3: Recombinant tissue inhibitor of matrix metalloproteinase-3, a soluble protein released by MSCs, obtained from Amgen Inc. (protein)
chain: CTCSPSHPQDAFCNSDIVIRAKVVGKKLVKEGPFGTLVYTIKQMKMYRGFTKMPHVQYIHTEASESLCGLKLEVNKYQYLLTGRVYDGKMYTGLCNFVERWDQLTLSQRKGLNYRYHLGCNCKIKSCYYLPCFVTSKNECLWTDMLSNFGYPGYQSKHYACIRQKGGYCSWYRGWAPPDKSIINATDP
Turning to B1, under “3 days post-TBI, western blot”, the “ipsilateral hippocampal phospho-S6RP levels versus sham controls” value is recorded as “are not significantly elevated in TBI alone versus sham controls unlike IV TIMP3 treated animals versus Sham controls”. The “phospho-S6 Ribosomal Protein (S235/236) in ipsilateral hippocampal homogenates” value (TIMP3 60 μg/kg IV x3, day 3, western blot, vs TBI alone) is “significantly elevates”. Under “day 3, tissue staining”, the “phospho-S6RP pixel density in area CA3” value was “significant elevation” and the “phospho-S6RP/NeuN+ve neurons in the GCL proximal to injury site” value was “an elevation with TIMP3 treatment”. Moreover, the “phospho-S6RP (S235/236) in contralateral hippocampal homogenates” value (day 3, western blot) is reported as “No differences were observed”. In addition, the “phosphorylated S6RP staining in the non-neuronal molecular layer (microglia/astrocytes)” value (ipsilateral hippocampus, day 3) was “Neither sham controls nor TIMP3 treated TBI mice showed this pattern of staining”.
